In US20240270846A1 (published 2024):
Changes are numbered by the printed parent chain. Names and notes keep the numbering of the source.

B1: GLS3000 S56I one-arm antibody (antibody, human IgG1, kappa, L234A L235A, N297A, name in Kabat numbering)
light: DIVMTQSPLSLPVTPGEPASISCRSSQSLVHSNRNTYLHWYQQKPGQAPRLLIYKVSNRFIGVPDRFSGSGSGTDFTLKISRVEAEDVGVYYCGQGTQVPYTFGQGTKLEIKRTVAAPSVFIFPPSDEQLKSGTASVVCLLNNFYPREAKVQWKVDNALQSGNSQESVTEQDSKDSTYSLSSTLTLSKADYEKHKVYACEVTHQGLSSPVTKSFNRGEC
heavy: QVQLVESGGGVVQPGRSLRLSCAASGFTFSNAWMHWVRQAPGKGLEWVAQIKAKSNNYATYYAESVKGRFTISRDDSKNSLYLQMNSLKTEDTAVYYCRYVHYGAYYGVDAWGQGTTVTVSSASTKGPSVFPLAPSSKSTSGGTAALGCLVKDYFPEPVTVSWNSGALTSGVHTFPAVLQSSGLYSLSSVVTVPSSSLGTQTYICNVNHKPSNTKVDKKVEPKSCDKTHTCPPCPAPEAAGGPSVFLFPPKPKDTLMISRTPEVTCVVVDVSHEDPEVKFNWYVDGVEVHNAKTKPREEQYASTYRVVSVLTVLHQDWLNGKEYKCKVSNKALPAPIEKTISKAKGQPREPQVYTLPPSRCELTKNQVSLSCAVKGFYPSDIAVEWESNGQPENNYKTTPPVLDSDGSFFLVSKLTVDKSRWQQGNVFSCSVMHEALHNHYTQKSLSLSPDYKDDDDK
chain: EPKSSDKTHTCPPCPAPELLGGPSVFLFPPKPKDTLMISRTPEVTCVVVDVSHEDPEVKFNWYVDGVEVHNAKTKPREEQYNSTYRVVSVLTVLHQDWLNGKEYKCKVSNKALPAPIEKTISKAKGQPREPQVCTLPPSRDELTKNQVSLWCLVKGFYPSDIAVEWESNGQPENNYKTTPPVLDSDGSFFLYSKLTVDKSRWQQGNVFSCSVMHEALHNRYTQKSLSLSP
B2: GLS3000 V94D one-arm antibody (antibody, human IgG1, kappa, L234A L235A, N297A, name in Kabat numbering)
light: B1 light with I61S, V99D
heavy: B1 heavy
chain: B1 chain
B3: GLS3000 S56Y one-arm antibody (antibody, human IgG1, kappa, L234A L235A, N297A, name in Kabat numbering)
light: B1 light with I61Y
heavy: B1 heavy
chain: B1 chain
B4: GLS3000 T92E one-arm antibody (antibody, human IgG1, kappa, L234A L235A, N297A, name in Kabat numbering)
light: B1 light with I61S, T97E
heavy: B1 heavy
chain: B1 chain
B5: GLS3000 T31E one-arm antibody (antibody, human IgG1, kappa, L234A L235A, N297A, name in Kabat numbering)
light: B1 light with T36E, I61S
heavy: B1 heavy
chain: B1 chain
B6: GLS3000 V94F one-arm antibody (antibody, human IgG1, kappa, L234A L235A, N297A, name in Kabat numbering)
light: B1 light with I61S, V99F
heavy: B1 heavy
chain: B1 chain
B7: GLS3000 T92A one-arm antibody (antibody, human IgG1, kappa, L234A L235A, N297A, name in Kabat numbering)
light: B1 light with I61S, T97A
heavy: B1 heavy
chain: B1 chain
B8: GLS3000 T92I one-arm antibody (antibody, human IgG1, kappa, L234A L235A, N297A, name in Kabat numbering)
light: B1 light with I61S, T97I
heavy: B1 heavy
chain: B1 chain
B9: GLS3000 S56R one-arm antibody (antibody, human IgG1, kappa, L234A L235A, N297A, name in Kabat numbering)
light: B1 light with I61R
heavy: B1 heavy
chain: B1 chain
B10: GLS3000 V51I one-arm antibody (antibody, human IgG1, kappa, L234A L235A, N297A, name in Kabat numbering)
light: B1 light with V56I, I61S
heavy: B1 heavy
chain: B1 chain
B11: GLS3000 S56V one-arm antibody (antibody, human IgG1, kappa, L234A L235A, N297A, name in Kabat numbering)
light: B1 light with I61V
heavy: B1 heavy
chain: B1 chain
B12: GLS3000 T31N one-arm antibody (antibody, human IgG1, kappa, L234A L235A, N297A, name in Kabat numbering)
light: B1 light with T36N, I61S
heavy: B1 heavy
chain: B1 chain
B13: GLS3000 T92P one-arm antibody (antibody, human IgG1, kappa, L234A L235A, N297A, name in Kabat numbering)
light: B1 light with I61S, T97P
heavy: B1 heavy
chain: B1 chain
B14: GLS3000 T31P one-arm antibody (antibody, human IgG1, kappa, L234A L235A, N297A, name in Kabat numbering)
light: B1 light with T36P, I61S
heavy: B1 heavy
chain: B1 chain
B15: GLS3000 T31K one-arm antibody (antibody, human IgG1, kappa, L234A L235A, N297A, name in Kabat numbering)
light: B1 light with T36K, I61S
heavy: B1 heavy
chain: B1 chain
B16: GLS3000 S56L one-arm antibody (antibody, human IgG1, kappa, L234A L235A, N297A, name in Kabat numbering)
light: B1 light with I61L
heavy: B1 heavy
chain: B1 chain
B17: GLS3000 V51P one-arm antibody (antibody, human IgG1, kappa, L234A L235A, N297A, name in Kabat numbering)
light: B1 light with V56P, I61S
heavy: B1 heavy
chain: B1 chain
B18: GLS3000 T92S one-arm antibody (antibody, human IgG1, kappa, L234A L235A, N297A, name in Kabat numbering)
light: B1 light with I61S, T97S
heavy: B1 heavy
chain: B1 chain
B19: GLS3000 T92D one-arm antibody (antibody, human IgG1, kappa, L234A L235A, N297A, name in Kabat numbering)
light: B1 light with I61S, T97D
heavy: B1 heavy
chain: B1 chain
B20: GLS3000 S56M one-arm antibody (antibody, human IgG1, kappa, L234A L235A, N297A, name in Kabat numbering)
light: B1 light with I61M
heavy: B1 heavy
chain: B1 chain
B21: GLS3000 V94E one-arm antibody (antibody, human IgG1, kappa, L234A L235A, N297A, name in Kabat numbering)
light: B1 light with I61S, V99E
heavy: B1 heavy
chain: B1 chain
B22: GLS3000 T92L one-arm antibody (antibody, human IgG1, kappa, L234A L235A, N297A, name in Kabat numbering)
light: B1 light with I61S, T97L
heavy: B1 heavy
chain: B1 chain
B23: GLS3000 S56N one-arm antibody (antibody, human IgG1, kappa, L234A L235A, N297A, name in Kabat numbering)
light: B1 light with I61N
heavy: B1 heavy
chain: B1 chain
B24: GLS3000 V51E one-arm antibody (antibody, human IgG1, kappa, L234A L235A, N297A, name in Kabat numbering)
light: B1 light with V56E, I61S
heavy: B1 heavy
chain: B1 chain
B25: GLS3000 V51G one-arm antibody (antibody, human IgG1, kappa, L234A L235A, N297A, name in Kabat numbering)
light: B1 light with V56G, I61S
heavy: B1 heavy
chain: B1 chain
B26: GLS3000 T31I one-arm antibody (antibody, human IgG1, kappa, L234A L235A, N297A, name in Kabat numbering)
light: B1 light with T36I, I61S
heavy: B1 heavy
chain: B1 chain
B27: GLS3000 S56P one-arm antibody (antibody, human IgG1, kappa, L234A L235A, N297A, name in Kabat numbering)
light: B1 light with I61P
heavy: B1 heavy
chain: B1 chain
B28: GLS3000 S56T one-arm antibody (antibody, human IgG1, kappa, L234A L235A, N297A, name in Kabat numbering)
light: B1 light with I61T
heavy: B1 heavy
chain: B1 chain
B29: GLS3000 S56K one-arm antibody (antibody, human IgG1, kappa, L234A L235A, N297A, name in Kabat numbering)
light: B1 light with I61K
heavy: B1 heavy
chain: B1 chain
B30: GLS3000 T97P one-arm antibody (antibody, human IgG1, kappa, L234A L235A, N297A, name in Kabat numbering)
light: B1 light with I61S, T102P
heavy: B1 heavy
chain: B1 chain
B31: GLS3000 S56W one-arm antibody (antibody, human IgG1, kappa, L234A L235A, N297A, name in Kabat numbering)
light: B1 light with I61W
heavy: B1 heavy
chain: B1 chain
B32: GLS3000 S56Q one-arm antibody (antibody, human IgG1, kappa, L234A L235A, N297A, name in Kabat numbering)
light: B1 light with I61Q
heavy: B1 heavy
chain: B1 chain

Each binder was assayed against T1, CD3 epsilon homodimer protein (UniProt P07766 23-126) (assay: SPR Biacore T200, CD3e homodimer on chip, antibody analyte;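 further: CD3 epsilon homodimer amine-coupled on CM4 sensor chip, antibodies injected as analyte at 25 °C in HBS-EP+, ratio ≥0.8 taken as binding retained versus unaltered parent antibody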).
T1 construct: Construct of the homodimer is not described; also called CD3 (CD3 epsilon)
T1 sequence (P07766 23-126): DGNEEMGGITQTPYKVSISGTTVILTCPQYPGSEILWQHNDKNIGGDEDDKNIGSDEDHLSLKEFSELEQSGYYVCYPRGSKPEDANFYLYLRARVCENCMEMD

Row | Binder | ratio of amounts bound (altered form/GLS3000)
1 | B1 | 0.99
2 | B2 | 0.89
3 | B3 | 1.46
4 | B4 | 0.17
5 | B5 | 0.49
6 | B6 | 0.71
7 | B7 | 0.63
8 | B8 | 0.34
9 | B9 | 1.36
10 | B10 | 0.81
11 | B11 | 0.95
12 | B12 | 0.32
13 | B13 | 0.26
14 | B14 | 0.31
15 | B15 | 1.04
16 | B16 | 1.02

Row | Binder | ratio of amounts bound (altered form/GLS3000)
17 | B17 | 0.32
18 | B18 | 0.96
19 | B19 | 0.18
20 | B20 | 1.05
21 | B21 | 0.5
22 | B22 | 0.42
23 | B23 | 0.92
24 | B24 | 0.64
25 | B25 | 0.84
26 | B26 | 0.97
27 | B27 | 0.95
28 | B28 | 0.97
29 | B29 | 1.46
30 | B30 | 0.31
31 | B31 | 1.38
32 | B32 | 1.04
